In US20120316071A1 (published 2012):

T1: rHuman Erythropoietin R/Fc Chimera, CF (human, UniProt P19235 25-250)
T1 construct: Bought from R&D Systems; also called EPO R; EPO R/Fc; not shown: Fc of the bought chimera
T1 sequence (looked up): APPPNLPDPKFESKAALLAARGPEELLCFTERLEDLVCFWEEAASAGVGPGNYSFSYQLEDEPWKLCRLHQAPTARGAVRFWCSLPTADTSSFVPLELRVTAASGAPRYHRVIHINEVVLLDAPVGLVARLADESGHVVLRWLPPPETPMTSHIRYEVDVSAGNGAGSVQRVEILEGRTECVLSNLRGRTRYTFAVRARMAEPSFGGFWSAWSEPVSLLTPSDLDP


Legend:
[1] = target: T2, rHuman Notch-1/Fc Chimera, CF (human, UniProt P46531 19-526); test: ECL Multispot (MSD) assay; antigen spotted on plate, Fab in solution;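 further: fab bound 1 h at 20 °C, detected by TAG-labelled antibody electrochemiluminescence, signal relative to each well's blank, ratio of 4 or more marks a hit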
T2 construct: Bought from R&D Systems; not shown: Fc of the bought chimera

[2] = target: T1, rHuman Erythropoietin R/Fc Chimera, CF; test: as above
[3] = target: T3, rHuman EGF R/Fc Chimera, CF (human, UniProt P00533 25-645); test: as above
T3 construct: Bought from R&D Systems; also called epidermal growth factor receptor; not shown: Fc of the bought chimera

[4] = target: T4, Recombinant Human DLL4 (human, UniProt Q9NR61 27-524); test: as above
T4 construct: Bought from R&D Systems; also called delta-like protein 4; rHuman DLL4

[5] = target: T5, rHuman HGF R/c-MET/Fc Chimera, CF (human, UniProt P08581 25-932); test: as above
T5 construct: Bought from R&D Systems; also called HGF R/Fc; hepatocyte growth factor receptor; not shown: Fc of the bought chimera
T5 sequence (P08581 25-932, change not shown): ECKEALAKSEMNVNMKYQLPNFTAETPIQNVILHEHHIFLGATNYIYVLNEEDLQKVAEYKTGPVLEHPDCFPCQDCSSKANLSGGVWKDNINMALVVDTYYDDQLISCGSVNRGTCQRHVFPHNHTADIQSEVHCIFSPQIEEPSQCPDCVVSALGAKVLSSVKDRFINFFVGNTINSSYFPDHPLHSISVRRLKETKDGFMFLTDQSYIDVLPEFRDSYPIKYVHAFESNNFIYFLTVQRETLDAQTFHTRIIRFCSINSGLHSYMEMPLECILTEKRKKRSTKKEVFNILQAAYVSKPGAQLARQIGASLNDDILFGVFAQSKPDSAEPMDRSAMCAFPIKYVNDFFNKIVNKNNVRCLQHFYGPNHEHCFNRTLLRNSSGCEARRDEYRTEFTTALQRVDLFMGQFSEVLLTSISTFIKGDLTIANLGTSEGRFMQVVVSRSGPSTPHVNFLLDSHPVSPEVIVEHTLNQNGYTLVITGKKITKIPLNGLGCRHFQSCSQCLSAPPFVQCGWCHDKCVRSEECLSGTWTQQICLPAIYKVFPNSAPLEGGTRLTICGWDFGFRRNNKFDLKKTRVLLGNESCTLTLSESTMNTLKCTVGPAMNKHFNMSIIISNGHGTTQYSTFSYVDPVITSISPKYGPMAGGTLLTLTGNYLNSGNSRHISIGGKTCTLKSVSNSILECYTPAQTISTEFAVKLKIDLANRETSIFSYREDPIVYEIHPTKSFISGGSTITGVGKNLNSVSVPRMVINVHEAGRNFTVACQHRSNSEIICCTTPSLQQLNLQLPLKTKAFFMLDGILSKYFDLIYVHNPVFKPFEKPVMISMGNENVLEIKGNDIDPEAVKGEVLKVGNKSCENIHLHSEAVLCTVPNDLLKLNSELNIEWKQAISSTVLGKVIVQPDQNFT

[6] = target: T6, rHuman ErbB2/Fc Chimera, CF (human, UniProt P04626 23-652); test: as above
T6 construct: Bought from R&D Systems; also called human epidermal growth factor 2 receptor; not shown: Fc of the bought chimera

[7] = target: T7, rHuman CD44/Fc Chimera, CF (human, UniProt P16070 21-220); test: as above
T7 construct: Bought from R&D Systems; not shown: Fc of the bought chimera

[8] = target: T8, rHuman IGF-1 sR, (IGF-1 sR), CF (human, UniProt P08069 31-932); test: as above
T8 construct: Bought from R&D Systems; also called insulin-like growth factor-1 soluble receptor

[9] = target: T9, Recombinant Human DLL4 (delta-like protein 4) (human, UniProt Q9NR61 27-529); test: ELISA, DLL4 coated on plate, Fab in solution, absorbance at 450 nm
T9 construct: Bought recombinant human DLL4 (R&D Systems Cat#1506-D4/CF); also called rHuman DLL4; Delta-like 4

[10] = target: T9, Recombinant Human DLL4 (delta-like …); test: 96-well plate ECL binding assay, DLL4 immobilised, Fab in solution
[11] = target: T10, rHuman CD44/Fc Chimera, CF (R&D Systems Cat#3660-CD) (human, UniProt P16070 21-220); test: ECL multispot (MSD) binding assay, antigen spotted on plate;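 further: purified Fab incubated 1 h at 20 °C on antigen spots, detected with TAG-labelled antibody, electrochemiluminescence compared with each well's blank, signal-to-blank ratio ≥4 counted as hit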
T10 construct: Bought recombinant protein

[12] = target: T11, Recombinant Human DLL4 (R&D Systems Cat#1506-D4/CF) (human, UniProt Q9NR61 27-524); test: as above
T11 construct: Bought recombinant protein; also called delta-like protein 4; rHuman DLL4

[13] = target: T12, rHuman ErbB2/Fc Chimera, CF (R&D Systems Cat#1129-ER) (human, UniProt P04626 23-652); test: as above
T12 construct: Bought recombinant protein; also called human epidermal growth factor 2 receptor

[14] = target: T13, rHuman HGF R/c-MET/Fc Chimera, CF (R&D Systems Cat#358-MT/CF) (human, UniProt P08581 25-932); test: as above
T13 construct: Bought recombinant protein; also called HGF R/Fc; hepatocyte growth factor receptor
T13 sequence (P08581 25-932, change not shown): as above

[15] = target: T14, rHuman EGF R/Fc Chimera, CF (R&D Systems Cat#344-ER) (human, UniProt P00533 25-645); test: as above
T14 construct: Bought recombinant protein; also called epidermal growth factor receptor

[16] = target: T15, rHuman Notch-1/Fc Chimera, CF (R&D Systems Cat#3647-TK) (human, UniProt P46531 19-526); test: as above
T15 construct: Bought recombinant protein

[17] = target: T16, rHuman P-Cadherin/Fc Chimera, CF (R&D Systems Cat#861-PC) (human, UniProt P22223 108-654); test: as above
T16 construct: Bought recombinant protein

[18] = target: T17, rHuman IGF-1 sR, (IGF-1 sR), CF (R&D Systems Cat#391-GR) (human, UniProt P08069 31-932); test: as above
T17 construct: Bought recombinant soluble receptor; also called insulin-like growth factor-1 soluble receptor

Row | Binder | ELISA (Avgerage signal-noise) [9] | ECL signal [10] | also measured
1 | Fab VH1-46_IGHD6-6*01_IGHJ1*01 S102A/S103P/S104F/H111F (APFF) & L6_IGKJ1*01 S28T (Fab, V domains shown, Fab made in E. coli; the variable domains were cloned into Plasmid A (CH1, His and Flag tags) and Plasmid C (kappa CL); also called APFF / S28T) VH: QVQLVQSGAEVKKPGASVKVSCKASGYTFTSYYMHWVRQAPGQGLEWMGIINPSGGSTSYAQKFQGRVTMTRDTSTSTVYMELSSLRSEDTAVYYCAREEYAPFSAEYFQFWGQGTLVTVSS VL: EIVLTQSPATLSLSPGERATLSCRASQTVSSYLAWYQQKPGQAPRLLIYDASNRATGIPARFSGSGSGTDFTLTISSLEPEDFAVYYCQQRSNWPPWTFGQGTKVEIKR | – | – | ECL signal [1]: 249; ECL signal [2]: 380; ECL signal [3]: 321; ECL signal [4]: 159000; ECL signal [5]: 371; ECL signal [6]: 271; ECL signal [7]: 368; ECL signal [8]: 355
2 | Fab VH1-46_IGHD6-6*01_IGHJ1*01 S102A/S103P/S104F/H111F & L6_IGKJ1*01 S28N/S30D/S31H (Fab, V domains shown, Parental template of this NNK series; Fab with CH1 (plasmid A, His6 and Flag tags) and kappa CL (plasmid C); also called H:APFF & L:NDH; NDH) VH: QVQLVQSGAEVKKPGASVKVSCKASGYTFTSYYMHWVRQAPGQGLEWMGIINPSGGSTSYAQKFQGRVTMTRDTSTSTVYMELSSLRSEDTAVYYCAREEYAPFSAEYFQFWGQGTLVTVSS VL: EIVLTQSPATLSLSPGERATLSCRASQNVDHYLAWYQQKPGQAPRLLIYDASNRATGIPARFSGSGSGTDFTLTISSLEPEDFAVYYCQQRSNWPPWTFGQGTKVEIKR | 0.165 | 18700 | –
3 | Fab VH1-46_IGHD6-6*01_IGHJ1*01 S102A/S103P/S104F/H111F & L6_IGKJ1*01 S28N/S30D/S31H N53M (Fab, V domains shown, Fab with CH1 (plasmid A, His6 and Flag tags) and kappa CL (plasmid C); also called H:APFF & L:NDH N53M) VH: QVQLVQSGAEVKKPGASVKVSCKASGYTFTSYYMHWVRQAPGQGLEWMGIINPSGGSTSYAQKFQGRVTMTRDTSTSTVYMELSSLRSEDTAVYYCAREEYAPFSAEYFQFWGQGTLVTVSS VL: EIVLTQSPATLSLSPGERATLSCRASQNVDHYLAWYQQKPGQAPRLLIYDASMRATGIPARFSGSGSGTDFTLTISSLEPEDFAVYYCQQRSNWPPWTFGQGTKVEIKR | 0.162 | 17800 | –
4 | Fab VH1-46_IGHD6-6*01_IGHJ1*01 S102A/S103P/S104F/H111F & L6_IGKJ1*01 S28N/S30D/S31H N53E (Fab, V domains shown, Fab with CH1 (plasmid A, His6 and Flag tags) and kappa CL (plasmid C); also called H:APFF & L:NDH N53E) VH: QVQLVQSGAEVKKPGASVKVSCKASGYTFTSYYMHWVRQAPGQGLEWMGIINPSGGSTSYAQKFQGRVTMTRDTSTSTVYMELSSLRSEDTAVYYCAREEYAPFSAEYFQFWGQGTLVTVSS VL: EIVLTQSPATLSLSPGERATLSCRASQNVDHYLAWYQQKPGQAPRLLIYDASERATGIPARFSGSGSGTDFTLTISSLEPEDFAVYYCQQRSNWPPWTFGQGTKVEIKR | 0.204 | 17600 | –
5 | Fab VH1-46_IGHD6-6*01_IGHJ1*01 S102A/S103P/S104F/H111F & L6_IGKJ1*01 S28N/S30D/S31H S52L (Fab, V domains shown, Fab made in E. coli; The rest is CH1 from plasmid A (His6 and Flag tags) and kappa CL from plasmid C; also called H:APFF & L:NDH S52L) VH: QVQLVQSGAEVKKPGASVKVSCKASGYTFTSYYMHWVRQAPGQGLEWMGIINPSGGSTSYAQKFQGRVTMTRDTSTSTVYMELSSLRSEDTAVYYCAREEYAPFSAEYFQFWGQGTLVTVSS VL: EIVLTQSPATLSLSPGERATLSCRASQNVDHYLAWYQQKPGQAPRLLIYDALNRATGIPARFSGSGSGTDFTLTISSLEPEDFAVYYCQQRSNWPPWTFGQGTKVEIKR | 0.285 | 17800 | –
6 | Fab VH1-46_IGHD6-6*01_IGHJ1*01 S102A/S103P/S104F/H111F & L6_IGKJ1*01 S28N/S30D/S31H N53G (Fab, V domains shown, Fab with CH1 (plasmid A, His6 and Flag tags) and kappa CL (plasmid C); also called H:APFF & L:NDH N53G) VH: QVQLVQSGAEVKKPGASVKVSCKASGYTFTSYYMHWVRQAPGQGLEWMGIINPSGGSTSYAQKFQGRVTMTRDTSTSTVYMELSSLRSEDTAVYYCAREEYAPFSAEYFQFWGQGTLVTVSS VL: EIVLTQSPATLSLSPGERATLSCRASQNVDHYLAWYQQKPGQAPRLLIYDASGRATGIPARFSGSGSGTDFTLTISSLEPEDFAVYYCQQRSNWPPWTFGQGTKVEIKR | 0.163 | 20600 | –
7 | Fab VH1-46_IGHD6-6*01_IGHJ1*01 S102A/S103P/S104F/H111F (APFF) & L6_IGKJ1*01 S31A (Fab, V domains shown, Tested as Fab (CH1 with His6/Flag tags, kappa CL) made in E. coli; also called APFF / S31A) VH: QVQLVQSGAEVKKPGASVKVSCKASGYTFTSYYMHWVRQAPGQGLEWMGIINPSGGSTSYAQKFQGRVTMTRDTSTSTVYMELSSLRSEDTAVYYCAREEYAPFSAEYFQFWGQGTLVTVSS VL: EIVLTQSPATLSLSPGERATLSCRASQSVSAYLAWYQQKPGQAPRLLIYDASNRATGIPARFSGSGSGTDFTLTISSLEPEDFAVYYCQQRSNWPPWTFGQGTKVEIKR | – | – | ECL signal [11]: 406; ECL signal [12]: 192000; ECL signal [13]: 383; ECL signal [14]: 309; ECL signal [15]: 415; ECL signal [16]: 424; ECL signal [17]: 361; ECL signal [18]: 334
8 | Fab VH1-46_IGHD6-6*01_IGHJ1*01 S102A/S103P/S104F/H111F & L6_IGKJ1*01 S28N/S30D/S31H N53H (Fab, V domains shown, Fab with CH1 (plasmid A, His6 and Flag tags) and kappa CL (plasmid C); also called H:APFF & L:NDH N53H) VH: QVQLVQSGAEVKKPGASVKVSCKASGYTFTSYYMHWVRQAPGQGLEWMGIINPSGGSTSYAQKFQGRVTMTRDTSTSTVYMELSSLRSEDTAVYYCAREEYAPFSAEYFQFWGQGTLVTVSS VL: EIVLTQSPATLSLSPGERATLSCRASQNVDHYLAWYQQKPGQAPRLLIYDASHRATGIPARFSGSGSGTDFTLTISSLEPEDFAVYYCQQRSNWPPWTFGQGTKVEIKR | 0.23 | 20100 | –

The next lines start with results.

Row | ELISA (Avgerage signal-noise) [9] | ECL signal [10] | Binder | also measured
9 | 0.185 | 19500 | Fab VH1-46_IGHD6-6*01_IGHJ1*01 S102A/S103P/S104F/H111F & L6_IGKJ1*01 S28N/S30D/S31H S52M (Fab, V domains shown, Fab with CH1 (plasmid A, His6 and Flag tags) and kappa CL (plasmid C); also called H:APFF & L:NDH S52M) VH: QVQLVQSGAEVKKPGASVKVSCKASGYTFTSYYMHWVRQAPGQGLEWMGIINPSGGSTSYAQKFQGRVTMTRDTSTSTVYMELSSLRSEDTAVYYCAREEYAPFSAEYFQFWGQGTLVTVSS VL: EIVLTQSPATLSLSPGERATLSCRASQNVDHYLAWYQQKPGQAPRLLIYDAMNRATGIPARFSGSGSGTDFTLTISSLEPEDFAVYYCQQRSNWPPWTFGQGTKVEIKR | –
10 | 0.177 | 16300 | Fab VH1-46_IGHD6-6*01_IGHJ1*01 S102A/S103P/S104F/H111F & L6_IGKJ1*01 S28N/S30D/S31H S52W (Fab, V domains shown, Fab with CH1 (plasmid A, His6 and Flag tags) and kappa CL (plasmid C); also called H:APFF & L:NDH S52W) VH: QVQLVQSGAEVKKPGASVKVSCKASGYTFTSYYMHWVRQAPGQGLEWMGIINPSGGSTSYAQKFQGRVTMTRDTSTSTVYMELSSLRSEDTAVYYCAREEYAPFSAEYFQFWGQGTLVTVSS VL: EIVLTQSPATLSLSPGERATLSCRASQNVDHYLAWYQQKPGQAPRLLIYDAWNRATGIPARFSGSGSGTDFTLTISSLEPEDFAVYYCQQRSNWPPWTFGQGTKVEIKR | –
11 | 0.263 | 20100 | Fab VH1-46_IGHD6-6*01_IGHJ1*01 S102A/S103P/S104F/H111F & L6_IGKJ1*01 S28N/S30D/S31H S52T (Fab, V domains shown, Fab with CH1 (plasmid A, His6 and Flag tags) and kappa CL (plasmid C); also called H:APFF & L:NDH S52T) VH: QVQLVQSGAEVKKPGASVKVSCKASGYTFTSYYMHWVRQAPGQGLEWMGIINPSGGSTSYAQKFQGRVTMTRDTSTSTVYMELSSLRSEDTAVYYCAREEYAPFSAEYFQFWGQGTLVTVSS VL: EIVLTQSPATLSLSPGERATLSCRASQNVDHYLAWYQQKPGQAPRLLIYDATNRATGIPARFSGSGSGTDFTLTISSLEPEDFAVYYCQQRSNWPPWTFGQGTKVEIKR | –
